B1: NLV3 TCR beta chain (CDR3β only) (parent)
chain: ASSPTGGSPSPLH

Variants of: B1
Experiment: T-Switch: Jurkat TCRβ−/− cells expressing a CDR3 saturation-mutagenesis library, stained with two peptide-HLA-A*02:01 tetramers (original and novel peptide) plus anti-CD3, FACS-sorted into four gates, gDNA sequenced
Conditions: with both tetramers (double-negative gate, binds neither): HLA-A*02:01 with … and with …, tetramers 1 µg/mL, 30 min on ice, SP, DP and SW gates expanded about 10 days between rounds ('two to three rounds of selection' in the Methods), gate DN: OPPOSITE: higher = more of the variant in the gate that binds neither peptide = LESS binding (or no expression; inferred). Fold enrichment of the CDR3 variant in one FACS gate of a two-tetram, unresolved parent, parent is a CDR3 fragment, scale: fold enrichment, numbering: sequential-on-construct, sequence starts at 1

How did the enrichment turn out when […] (CDR3 as printed); P11C derived by comparing it with the table's wild-type CDR3 ASSPTGGSPSPLH was run?
Its enrichment is 0.758.

[…] (CDR3 as printed); T5F derived by comparing it with the table's wild-type CDR3 ASSPTGGSPSPLH was tested. Which enrichment did it give?
Its enrichment is 0.464.

[…] (CDR3 as printed); S8K derived by comparing it with the table's wild-type CDR3 ASSPTGGSPSPLH was tested. Which enrichment did it give?
Its enrichment is 0.743.

For […] (CDR3 as printed); T5Y derived by comparing it with the table's wild-type CDR3 ASSPTGGSPSPLH, which enrichment is on record?
Its enrichment is 0.587.

Which enrichment does the source give for […] (CDR3 as printed); S2V derived by comparing it with the table's wild-type CDR3 ASSPTGGSPSPLH here?
The enrichment was 0.992.

For […] (CDR3 as printed); S8N derived by comparing it with the table's wild-type CDR3 ASSPTGGSPSPLH, which enrichment is on record?
Its enrichment is 1.07.

With […] (CDR3 as printed); S10T derived by comparing it with the table's wild-type CDR3 ASSPTGGSPSPLH as the variant, how does the enrichment read?
Its enrichment is 1.08.

[…] (CDR3 as printed); S10P derived by comparing it with the table's wild-type CDR3 ASSPTGGSPSPLH was tested. Which enrichment did it give?
The enrichment was 1.37.

For […] (CDR3 as printed); S3H derived by comparing it with the table's wild-type CDR3 ASSPTGGSPSPLH, which enrichment is on record?
Its enrichment is 0.931.

For […] (CDR3 as printed); S3D derived by comparing it with the table's wild-type CDR3 ASSPTGGSPSPLH, which enrichment is on record?
The enrichment was 0.675.

With […] (CDR3 as printed); P11Q derived by comparing it with the table's wild-type CDR3 ASSPTGGSPSPLH as the variant, how does the enrichment read?
The enrichment was 0.777.

Which enrichment does the source give for […] (CDR3 as printed); S3C derived by comparing it with the table's wild-type CDR3 ASSPTGGSPSPLH here?
The enrichment was 0.656.

With […] (CDR3 as printed); S10R derived by comparing it with the table's wild-type CDR3 ASSPTGGSPSPLH as the variant, how does the enrichment read?
Its enrichment is 1.17.

Which enrichment does the source give for […] (CDR3 as printed); S10D derived by comparing it with the table's wild-type CDR3 ASSPTGGSPSPLH here?
The enrichment was 0.754.

For […] (CDR3 as printed); S8A derived by comparing it with the table's wild-type CDR3 ASSPTGGSPSPLH, which enrichment is on record?
Its enrichment is 0.6.

Which enrichment does the source give for […] (CDR3 as printed); S10E derived by comparing it with the table's wild-type CDR3 ASSPTGGSPSPLH here?
The enrichment was 1.41.

[…] (CDR3 as printed); S8R derived by comparing it with the table's wild-type CDR3 ASSPTGGSPSPLH was tested. Which enrichment did it give?
Its enrichment is 0.977.

[…] (CDR3 as printed); S3K derived by comparing it with the table's wild-type CDR3 ASSPTGGSPSPLH was tested. Which enrichment did it give?
Its enrichment is 1.11.

How did the enrichment turn out when […] (CDR3 as printed); S2A derived by comparing it with the table's wild-type CDR3 ASSPTGGSPSPLH was run?
The enrichment was 0.536.

[…] (CDR3 as printed); T5E derived by comparing it with the table's wild-type CDR3 ASSPTGGSPSPLH was tested. Which enrichment did it give?
The enrichment was 0.994.

With […] (CDR3 as printed); S3I derived by comparing it with the table's wild-type CDR3 ASSPTGGSPSPLH as the variant, how does the enrichment read?
The enrichment was 1.21.

[…] (CDR3 as printed); T5C derived by comparing it with the table's wild-type CDR3 ASSPTGGSPSPLH was tested. Which enrichment did it give?
The enrichment was 1.08.

With […] (CDR3 as printed); P11L derived by comparing it with the table's wild-type CDR3 ASSPTGGSPSPLH as the variant, how does the enrichment read?
Its enrichment is 0.702.

With […] (CDR3 as printed); S8G derived by comparing it with the table's wild-type CDR3 ASSPTGGSPSPLH as the variant, how does the enrichment read?
Its enrichment is 0.725.

Same assay, conditions: with both tetramers (double-positive gate): HLA-A*02:01 with … and with …, tetramers 1 µg/mL, 30 min on ice, SP, DP and SW gates expanded about 10 days between rounds ('two to three rounds of selection' in the Methods), gate DP: higher = more of the variant in the gate that binds both peptides. Fold enrichment of the CDR3 variant in one FACS gate of a two-tetramer stain. SP/DP/SW gates were expanded and re-sorted bef, unresolved parent, parent is a CDR3 fragment, scale: fold enrichment, numbering: sequential-on-construct, sequence starts at 1

How did the enrichment turn out when […] (CDR3 as printed); P11C derived by comparing it with the table's wild-type CDR3 ASSPTGGSPSPLH was run?
The enrichment was 0.

[…] (CDR3 as printed); T5F derived by comparing it with the table's wild-type CDR3 ASSPTGGSPSPLH was tested. Which enrichment did it give?
The enrichment was 0.

[…] (CDR3 as printed); S8K derived by comparing it with the table's wild-type CDR3 ASSPTGGSPSPLH was tested. Which enrichment did it give?
The enrichment was 0.

Which enrichment does the source give for […] (CDR3 as printed); T5Y derived by comparing it with the table's wild-type CDR3 ASSPTGGSPSPLH here?
The enrichment was 0.

[…] (CDR3 as printed); S2V derived by comparing it with the table's wild-type CDR3 ASSPTGGSPSPLH was tested. Which enrichment did it give?
Its enrichment is 0.

How did the enrichment turn out when […] (CDR3 as printed); S8N derived by comparing it with the table's wild-type CDR3 ASSPTGGSPSPLH was run?
The enrichment was 0.

For […] (CDR3 as printed); S10T derived by comparing it with the table's wild-type CDR3 ASSPTGGSPSPLH, which enrichment is on record?
The enrichment was 0.

Which enrichment does the source give for […] (CDR3 as printed); S10P derived by comparing it with the table's wild-type CDR3 ASSPTGGSPSPLH here?
Its enrichment is 0.

How did the enrichment turn out when […] (CDR3 as printed); S3H derived by comparing it with the table's wild-type CDR3 ASSPTGGSPSPLH was run?
The enrichment was 0.

For […] (CDR3 as printed); S3D derived by comparing it with the table's wild-type CDR3 ASSPTGGSPSPLH, which enrichment is on record?
The enrichment was 0.

How did the enrichment turn out when […] (CDR3 as printed); P11Q derived by comparing it with the table's wild-type CDR3 ASSPTGGSPSPLH was run?
Its enrichment is 0.

[…] (CDR3 as printed); S3C derived by comparing it with the table's wild-type CDR3 ASSPTGGSPSPLH was tested. Which enrichment did it give?
The enrichment was 0.

How did the enrichment turn out when […] (CDR3 as printed); S10R derived by comparing it with the table's wild-type CDR3 ASSPTGGSPSPLH was run?
Its enrichment is 0.

How did the enrichment turn out when […] (CDR3 as printed); S10D derived by comparing it with the table's wild-type CDR3 ASSPTGGSPSPLH was run?
The enrichment was 0.

For […] (CDR3 as printed); S8A derived by comparing it with the table's wild-type CDR3 ASSPTGGSPSPLH, which enrichment is on record?
The enrichment was 0.

For […] (CDR3 as printed); S10E derived by comparing it with the table's wild-type CDR3 ASSPTGGSPSPLH, which enrichment is on record?
Its enrichment is 0.

For […] (CDR3 as printed); S8R derived by comparing it with the table's wild-type CDR3 ASSPTGGSPSPLH, which enrichment is on record?
Its enrichment is 0.

How did the enrichment turn out when […] (CDR3 as printed); S3K derived by comparing it with the table's wild-type CDR3 ASSPTGGSPSPLH was run?
Its enrichment is 0.

For […] (CDR3 as printed); S2A derived by comparing it with the table's wild-type CDR3 ASSPTGGSPSPLH, which enrichment is on record?
Its enrichment is 0.

[…] (CDR3 as printed); T5E derived by comparing it with the table's wild-type CDR3 ASSPTGGSPSPLH was tested. Which enrichment did it give?
The enrichment was 0.

[…] (CDR3 as printed); S3I derived by comparing it with the table's wild-type CDR3 ASSPTGGSPSPLH was tested. Which enrichment did it give?
The enrichment was 0.

How did the enrichment turn out when […] (CDR3 as printed); T5C derived by comparing it with the table's wild-type CDR3 ASSPTGGSPSPLH was run?
The enrichment was 0.

For […] (CDR3 as printed); P11L derived by comparing it with the table's wild-type CDR3 ASSPTGGSPSPLH, which enrichment is on record?
The enrichment was 0.

For […] (CDR3 as printed); S8G derived by comparing it with the table's wild-type CDR3 ASSPTGGSPSPLH, which enrichment is on record?
Its enrichment is 0.

Same assay, conditions: with both tetramers (double-negative gate, binds neither): HLA-A*02:01 with … and with …, tetramers 1 µg/mL, 30 min on ice, SP, DP and SW gates expanded about 10 days between rounds ('two to three rounds of selection' in the Methods), gate DN: OPPOSITE: higher = more of the variant in the gate that binds neither peptide = LESS binding (or no expression; inferred). Fold enrichment of the CDR3 variant in one FACS gate of a two-tetram, unresolved parent, parent is a CDR3 fragment, zero in all gates, scale: fold enrichment, numbering: sequential-on-construct, …

How did the enrichment turn out when […] (CDR3 as printed); G7P derived by comparing it with the table's wild-type CDR3 ASSPTGGSPSPLH was run?
The enrichment was 0.

Same assay, conditions: with both tetramers (double-positive gate): HLA-A*02:01 with … and with …, tetramers 1 µg/mL, 30 min on ice, SP, DP and SW gates expanded about 10 days between rounds ('two to three rounds of selection' in the Methods), gate DP: higher = more of the variant in the gate that binds both peptides. Fold enrichment of the CDR3 variant in one FACS gate of a two-tetramer stain. SP/DP/SW gates were expanded and re-sorted bef, unresolved parent, parent is a CDR3 fragment, zero in all gates, scale: fold enrichment, numbering: sequential-on-construct, sequence starts at 1

Which enrichment does the source give for […] (CDR3 as printed); G7P derived by comparing it with the table's wild-type CDR3 ASSPTGGSPSPLH here?
Its enrichment is 0.

Source: article PMC13397619
